The values below come from article PMC2947466.

Numbering of substitutions follows the chain as printed. Names and notes keep the numbering of the source.

A word on the Kd: it is the equilibrium constant for the complex coming apart. Low values mean a tighter complex, high ones a looser complex.

To fix the notation:
B1: spastin MIT domain, purified (domain or fragment)
chain: HKQAFEYISIALRIDEDEKAGQKEQAVEWYKKGIEELEKGIAVIVTGQGEQCERARRLQAKMMTNLVMAKDRLQLL
B2: spastin F124D MIT domain, purified (domain or fragment)
chain: B1 chain with F5D
B3: spartin MIT domain (residues 1-107), purified (domain or fragment)
chain: MEQEPQNGEPAEIKIIREAYKKAFLFVNKGLNTDELGQKEEAKNYYKQGIGHLLRGISISSKESEHTGPGWESARQMQQKMKETLQNVRTRLEILEKGLATSLQNDL

The target of the assay is GST-Ist1-CTR (residues 296-335) (human). Description: SPR.
The molecule B1 came in with a Kd of 4.6 µM. This lies in the single-digit micromolar range. The value for B2 was 471 µM; that for B3 was 10.4 µM.
